Laboratory results taken from patent US20020114797, “Composition and methods for modulating the length of telomeres” (Telogene Inc., published 2002).

Legend:
[1] = biological target: T1, GST-UP1 (hnRNP A1 proteolytic fragment UP1) (UniProt P49312 P49312:1-196); test: pulldown; glutathione Sepharose beads, washes at 165 mM NaCl; highest recovery; plain beads less than 10% of bound; settings: tags: N-terminal GST fusion (inferred); label: 32P
Procedure: (§1) Following 5×1 ml washes in buffer containing 165 mM NaCl, the recovery of the labelled oligos was measured. The (TTAGGG)₃ oligonucleotide was recovered with the highest yield. A control experiment with plain beads yielded less that 10% of bound (TTAGGG)₃ oligonucleotide. A labelled DNA oligonucleotide containing the complementary sequence (CCCTAA)₃ was recovered at background level. […] UP1 associated directly with telomeric repeats carrying the TTAGGG sequence. Gel-shift assays performed with mutated oligonucleotides indicate that UP1 binds specifically to (TTAGGG)₃ oligonucleotide.
(§2) ³²P-labelled DNA oligonucleotides were mixed with Glutathione Sepharose 4B beads containing or lacking the GST-UP1 fusion protein. Following 5×1 ml washes in buffer containing 165 mM NaCl, the recovery of the labelled oligos was measured. The (TTAGGG)₃ oligonucleotide was recovered with the highest yield. A control experiment with plain beads yielded less that 10% of bound (TTAGGG)₃ oligonucleotide. A labelled DNA oligonucleotide containing the complementary sequence (CCCTAA)₃ was recovered at background level. […] Thus, UP1 can associate directly with telomeric repeats carrying the TTAGGG sequence. Furthermore, gel-shift assays performed with mutated oligonucleotides indicate that UP1 binds specifically to (TTAGGG)₃ oligonucleotide. […] It remains to be shown whether UP1 associates with telomeric repeats in vivo.

[2] = biological target: T1, GST-UP1 (hnRNP A1 proteolytic fragment …); test: pulldown; background level recovery; 165 mM NaCl washes; also tested by gel shift (FIG. 3 lane 9); settings: tags: N-terminal GST fusion (inferred); label: 32P
Procedure: as §1, §2

T1 sequence (P49312 1-196, one chain of several): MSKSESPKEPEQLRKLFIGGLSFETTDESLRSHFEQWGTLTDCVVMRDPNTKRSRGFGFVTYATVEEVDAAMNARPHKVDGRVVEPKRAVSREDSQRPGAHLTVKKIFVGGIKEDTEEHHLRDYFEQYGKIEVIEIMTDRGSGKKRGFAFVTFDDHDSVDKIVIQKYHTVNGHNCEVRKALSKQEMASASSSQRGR

| Binder | binding result [1] | binding result [2] |
| --- | --- | --- |
| TTAGGGTTAGGGTTAGGG (ssDNA) [vertebrate telomeric (TTAGGG)3] | binds |  |
| CCCTAACCCTAACCCTAA (ssDNA) [complementary C-strand (CCCTAA)3] |  | no binding |
